Biological target: GST-tagged importin α7 lacking the IBB (human)
Assay: pull-down

influenza A virus (H1N1 strain A/WSN/33) monomeric nucleoprotein (from UniProt P15682 1-498) (natural protein)
quantity recovered relative to importin α1: 2 fold
